What was measured:
[1] = molecular target: HA-Ctla-4 (zebrafish cytotoxic T lymphocyte antigen-4, from pCDNA3.1-HA-Ctla-4) (zebrafish); test: Western blot under non-reducing and reducing conditions; lysate of HEK293T cells transfected with pCDNA3.1-HA-Ctla-4 for 48 hr, mixed with loading buffer without or with β-ME; empty plasmid as control
[2] = molecular target: Cd28 with EGFP-tag (labeled protein of the MST assay) (zebrafish); test: MST; Monolith NT.115; EGFP-tagged Cd28 or Ctla-4 as labeled protein, unlabeled Cd80/86 titrated (initial 3.2 µM, 16 doubling dilutions), 10 min at room temperature, measured at 25 °C, 40% LED, medium MST power
[3] = molecular target: Ctla-4 with EGFP-tag (labeled protein of the MST assay) (zebrafish); test: as above

Substance	stoichiometry N [1]	Kd [2]	Kd [3]
HA-Ctla-4 (zebrafish cytotoxic T lymphocyte antigen-4, from pCDNA3.1-HA-Ctla-4) (receptor)	2	–	–
recombinant soluble Cd80/86 (Cd80/86 extracellular domain) (domain or fragment)	–	2640 nM	500 nM

Source: PMC12092003
